Test results taken from article doi:10.1101/2025.08.18.670068, “Computational Design of Soluble CCR8 Analogues with Preserved Antibody Binding” (bioRxiv, 2025).

Target: T1, Wild-type CCR8 used as an assay control (Homo sapiens, UniProt P51685)
T1 construct: C-C chemokine receptor 8 (CCR8), human, wild type; Detergent-solubilised; 0.05% DDM and 0.01% CHS in the SPR running buffer; also called WT-CCR8; wild-type Human CCR8 protein; source: bought: Acro Biosystems (Cat. #CC8-H52D6)
Test: SPR; Biacore 8K; mAb1 IgG1 captured on Protein A chip (about 400 RU); wild-type CCR8 as analyte; 10 mM HEPES, 150 mM NaCl, 3 mM EDTA, 0.005% Tween-20, pH 7.4, with 0.05% DDM and 0.01% CHS; steady-state affinity fit
Details: both partners purified

- Kd: 190 nM
B1: mAb1 in full length human IgG1 format (antibody, V domains shown)
VH: QSVEESGGRLVTPGTPLTLTCTVSGFSLSNYAMIWVRQAPGEGLEWVGTISLGGYTYYANWAKGRFTISKTSTTVDLKISSPTTEDTATYFCARARWSTDSAIYTYAFDPWGPGTLVTVSS
VL: AYDMTQTPASVEVAVGGTVTIKCQASQSISSYLSWYQQKPGQRPELLIYKASTLASGVSSRFKGSGSGTQFTLTISDLEAADAATYYCQQGYTSSNIDNIFGGGTEVVVK
notes: VH of mAb1; constant region of human IgG1 heavy chain ('full length human IgG1 format'); light chain of mAb1; IgG1; captured on a Protein A chip for SPR; source: CHO cells, purified by one step Protein A chromatography
